This note sets out measurements from patent publication US20250289885A1 (TRUSTEES OF BOSTON UNIVERSITY, published 2025).

This experiment concerns the target T1, human Notch1-derived receptor overexpressed on CHO-K1 cells (human, UniProt P46531 19-1762, limits assumed).
T1 construct: Cells also express H2B-mTurq; also called Notch1 receptors
The experiment in a line: fluorescence microscopy of JFX650-labelled probody on CHO-K1 cells overexpressing a human Notch1-derived receptor. The procedure: FIGS. 36A and 36B present data showing Cleavage-Dependent Binding of a Brontictuzumab-Based Probody to Notch1 Receptors. A probody containing a brontictuzumab-based scFv was fused to a TEV cleavable linker and a soluble form of the human Notch1 NRR. Probodies containing either (FIG. 36A) the V1667D NRR mutant NRR, or (FIG. 36B) wild-type NRR were tested. The probodies also contained a HaloTag for labeling with a JFX650 dye. Binding of the probody to Notch1 receptors was tested using uncleaved and TEV protease-cleaved probody. The evaluated cells were based on CHO-K1 celle overexpressing a human Notch1-derived receptor; cells also expressed H2B-mTurq as a fluorescent marker (inset). Brontictuzumab is an antibody that binds the NRR from Notch1 (NRR1). Brontictuzumab (aka OMP-52M51) is originally from Oncomed Pharmaceuticals. This antibody is distinct from the Genentech anti-NRR1 used in our receptor and other Notch1 probody designs.

T1 sequence (P46531 19-1762 limits assumed): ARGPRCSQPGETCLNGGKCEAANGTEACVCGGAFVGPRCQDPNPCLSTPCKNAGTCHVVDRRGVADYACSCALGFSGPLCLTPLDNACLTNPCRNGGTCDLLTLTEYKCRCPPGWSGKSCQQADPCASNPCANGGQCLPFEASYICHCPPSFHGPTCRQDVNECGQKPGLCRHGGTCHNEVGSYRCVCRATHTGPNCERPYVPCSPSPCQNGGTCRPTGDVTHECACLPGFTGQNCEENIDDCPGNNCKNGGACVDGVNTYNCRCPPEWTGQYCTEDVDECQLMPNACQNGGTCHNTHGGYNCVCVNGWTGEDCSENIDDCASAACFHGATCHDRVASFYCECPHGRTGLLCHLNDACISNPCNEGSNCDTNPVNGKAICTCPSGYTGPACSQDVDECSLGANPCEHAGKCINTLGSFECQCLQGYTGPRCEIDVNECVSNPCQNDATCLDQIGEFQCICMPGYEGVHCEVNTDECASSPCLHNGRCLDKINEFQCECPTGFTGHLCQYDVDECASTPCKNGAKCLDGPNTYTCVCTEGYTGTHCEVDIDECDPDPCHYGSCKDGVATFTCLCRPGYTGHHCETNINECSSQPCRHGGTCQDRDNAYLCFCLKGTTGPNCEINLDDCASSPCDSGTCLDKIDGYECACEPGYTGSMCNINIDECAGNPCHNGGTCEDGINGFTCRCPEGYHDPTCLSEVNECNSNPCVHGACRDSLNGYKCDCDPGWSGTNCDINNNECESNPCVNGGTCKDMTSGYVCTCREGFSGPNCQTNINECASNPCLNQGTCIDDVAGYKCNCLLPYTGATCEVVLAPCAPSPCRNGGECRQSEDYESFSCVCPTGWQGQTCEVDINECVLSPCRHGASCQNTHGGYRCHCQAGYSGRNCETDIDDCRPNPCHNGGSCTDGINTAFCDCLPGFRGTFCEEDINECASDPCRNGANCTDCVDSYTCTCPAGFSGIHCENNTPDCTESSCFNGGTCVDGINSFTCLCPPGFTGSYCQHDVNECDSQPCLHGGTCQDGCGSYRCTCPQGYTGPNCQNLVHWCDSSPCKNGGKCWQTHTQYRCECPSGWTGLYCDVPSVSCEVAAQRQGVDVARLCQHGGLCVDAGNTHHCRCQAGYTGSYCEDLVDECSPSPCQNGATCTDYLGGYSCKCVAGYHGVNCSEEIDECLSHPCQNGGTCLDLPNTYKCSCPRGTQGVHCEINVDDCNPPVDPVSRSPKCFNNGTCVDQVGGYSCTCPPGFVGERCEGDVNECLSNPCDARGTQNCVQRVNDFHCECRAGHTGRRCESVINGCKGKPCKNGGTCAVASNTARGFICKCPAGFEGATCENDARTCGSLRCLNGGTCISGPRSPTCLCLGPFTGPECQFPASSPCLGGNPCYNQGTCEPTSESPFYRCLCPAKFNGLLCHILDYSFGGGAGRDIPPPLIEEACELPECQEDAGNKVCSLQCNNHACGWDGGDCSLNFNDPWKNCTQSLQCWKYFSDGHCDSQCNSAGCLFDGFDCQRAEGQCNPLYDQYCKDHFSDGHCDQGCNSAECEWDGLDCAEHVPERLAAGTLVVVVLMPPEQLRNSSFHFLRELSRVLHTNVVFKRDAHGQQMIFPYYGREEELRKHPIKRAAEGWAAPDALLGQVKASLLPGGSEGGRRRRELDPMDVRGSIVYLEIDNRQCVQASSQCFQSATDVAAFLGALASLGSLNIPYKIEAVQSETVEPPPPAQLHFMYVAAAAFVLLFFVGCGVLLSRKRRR

B1: TEV-cleavable Anti-Notch1 probody, with brontictuzumab scFv, Wild-type NRR (HaloTag-brontictuzumab-scFv-TEVcs-hNRR1^WT), intact (uncleaved) (other)
chain: YPYDVPDYATGMAEIGTGFPFDPHYVEVLGERMHYVDVGPRDGTPVLFLHGNPTSSYVWRNIIPHVAPTHRCIAPDLIGMGKSDKPDLGYFFDDHVRFMDAFIEALGLEEVVLVIHDWGSALGFHWAKRNPERVKGIAFMEFIRPIPTWDEWPEFARETFQAFRTTDVGRKLIIDQNVFIEGTLPMGVVRPLTEVEMDHYREPFLNPVDREPLWRFPNELPIAGEPANIVALVEEYMDWLHQSPVPKLLFWGTPGVLIPPAEAARLAKSLPNCKAVDIGPGLNLLQEDNPDLIGSEIARWLSTLEISGGGGGSTGDGGGGQVQLVQSGAEVKKPGASVKISCKVSGYTLRGYWIEWVRQAPGKGLEWIGQILPGTGRTNYNEKFKGRVTMTADTSTDTAYMELSSLRSEDTAVYYCARFDGNYGYYAMDYWGQGTTVTVSSGGSSRSSSSGGGGSGGGGQAVVTQEPSLTVSPGGTVTLTCRSSTGAVTTSNYANWFQQKPGQAPRTLIGGTNNRAPGVPARFSGSLLGGKAALTLSGAQPEDEAEYYCALWYSNHWVFGGGTKLTVLGSNSGGTLEGGGSGENLYFQGGGGGRTGGGSEQKLISEEDLGGGSILDYSFGGGAGRDIPPPLIEEACELPECQEDAGNKVCSLQCNNHACGWDGGDCSLNFNDPWKNCTQSLQCWKYFSDGHCDSQCNSAGCLFDGFDCQRAEGQCNPLYDQYCKDHFSDGHCDQGCNSAECEWDGLDCAEHVPERLAAGTLVVVVLMPPEQLRNSSFHFLRELSRVLHTNVVFKRDAHGQQMIFPYYGREEELRKHPIKRAAEGWAAPDALLGQVKASLLPGGSEGGRRRRELDPMDVRGSIVYLEIDNRQCVQASSQCFQSATDVAAFLGALASLGSLNIPYKIEAVQSETVEPGSLVPRGSSHHHHHHGPV
modifications: HaloTag labelled with JFX650 dye
notes: also called Brontictuzumab-based probody, wild-type NRR
For the molecule B1, the binding result is “no binding”.
